This is an account of results in US20260103490A1 (published 2026).

For one assay, the target named is FLAG-HA-MBP-myc-ALFA^ST. The assay can be described thus: dot blot of a dilution series of the MBP fusion.
The target in assay [1] is T1, ALFA^ST peptide (Ac-PSRLEEELRRRLTEP-Amide).
T1 construct: also called free ALFA^ST peptide; ALFA peptide
T1 peptide: Ac-PSRLEEELRRRLTEP-NH2
The experiment in a line: competitive elution of shGFP2-ALFA^ST from NbALFA^PE resin.

Experimental for FLAG-HA-MBP-myc-ALFA^ST: Membranes were scanned using Odyssey CLx (Li-COR). Quantifications were performed using ImageStudioLight (Li-COR).

B1: NbALFA^ST (NbALFA clone 1G5) (VHH)
VHH: EVQLQESGGGLVQPGGSLRLSCTASGVTISALNAMAMGWYRQAPGERRVMVAAVSERGNAMYRESVQGRFTVTRDFTNKMVSLQMDNLKPEDTAVYYCHVLEDRVDSFHDYWGQGTQVTVSS
notes: Alpaca single-domain antibody; also called ALFA Selector^ST (resin-immobilised form); FluoTag-X2 anti-ALFA (fluorophore-coupled form)
With B1, in the assay with FLAG-HA-MBP-myc-ALFA^ST, the “fold lower detection limit than for the other epitope tags” value is roughly 10 fold.

B2: NbALFA^PE (NbALFA mutant for Peptide Elution) (VHH)
VHH: EVQLQESGGGLVQPGGSLRLSCTASGVTISALNAMAMGWYRQAPGEERVMVAAVSSRGNAMYRESVQGRFTVTRDFTNKMVSLQMDNLKPEDTAVYYCHVLEDRVDSFHDYWGQGTQVTVSS
notes: Weaker mutant of NbALFA^ST; used immobilised on agarose (ALFA Selector^PE) or in solution (MST); also called ALFA Selector^PE (resin-immobilised form)
Consider B2, for which, in assay [1], the binding result is reported as “binds”.
